Data taken from patent US20190031771A1 (University of Pennsylvania, published 2019).
Numbering of substitutions follows the chain as printed.

B1: scFv z1-201 (scFv, V domains shown)
VH: QVQLVQFGGGLVQPGRSLRLSCAASGFIFDDYAMHWVRQAPGKGLEWVSGISWNSGSIGYADSVKGRFTISRDNAKNSLYLQMNSLRAEDTALYYCAKDPNSLYRSGSFDYWGQGTLVTVSS
VL: not shown
B2: scFv 2-108 (scFv, V domains shown)
VH: EVQLVQSGGGLVQPGGSLRLSCAASGFTFSSYWMSWVRQAPGKGLEWVANIKQDGSEKHYVDSMKGRFTISRDNGKNSLYLQMNSLRAEDTAVYYCARSPGYYFDYWGQGTLVTVSS
VL: ELVVTQPPSASGTPGQRVTISCSGSSSNIGSNYVYWYEQLPGTAPKLLIYRNNQRPSGVPDRFSGSKSGTSASLAISGLRSEDEADYYCAAWDDSLRVYVFGTGTKLTVL
B3: scFv 1-401 (scFv, V domains shown)
VH: QVQLVQSGAELKKPGSSVKVSCKASGGAFTMYTINWVRQAPGRGLEWMGRIIPILGITDYAQKFQGRGTITADKSTSTAYLELSGLTSEDTAVYYCAREFSGGNYFDFWGQGTLVTVSS
VL: ELVLTQPPSVSVAPGKTARMTCGGNNIGGYSVHWYQQKPGQAPVLVVYHDSDRPSGIPERFTGSNSGNMATLTISRVEAGDEADYYCQVWDSSNDHSVFGGGTELTVL
B4: scFv 2-103 (scFv, V domains shown)
VH: QVQLVQSGAEVKKPGSSVKVSCKASGGTFSSYDINWVRQAPGQGLEWMGSIIPILGISNYAQKFQGRVTITADKSTSTAYMELSSLRSEDTAVYYCARDQGYANNYGAYWGQGTLVTVSS
VL: B3 VL with K16Q, M20I, G29S, Y30K, L45V, H49D, T62S, M69T, N94S, S97W
B5: scFv 3-305 (scFv, V domains shown)
VH: QVQLVQSGAEVKRPGSSVKVSCKASGNTFSNYHINWVRQAPGQGLQWMGGIIPILGRTNYAQNFQGRVTITTDESTNTAYMELTSLRSEDTAVYYCAREARDSFDFWGQGTMVTVSS
VL: B3 VL with M20I, G29S, Y30K, H49D, T62S, M69T, N94S, S97W, E104Q
B6: scFv 1-458 (scFv, V domains shown)
VH: B3 VH
VL: ELVLTQPPSVSVAPGKTARIPCGGNNIGGKSVHWYQQRPGQAPVLVVYSDSVRPSGIPERFSGSNSGNTATLTISRVEAGDEADYYCQVWDRSSDHVVFGGGTQLTVL
B7: scFv 1-403 (scFv, V domains shown)
VH: QVQLQESGGGVVQPGRSLRLSCAASGFTFRNYAMHWVRQAPGKGLEWVAVISYDGGKEYYADSVKGRFTISRDNSKNTLYLQMNSLRAEDTAVYYCARDTFSYYDFWRAFDYWGQGTLVTVSS
VL: ELVMTQSPSSLSASVGDTVTITCRASQSLRGYLNWYQQKPGEAPKLLIYAASTLRAGVPPRFSGAGYETDFSLTISNLQLEDFATYYCQQSHNVPLTFGGGTKVEIK
B8: scFv 1-406 (scFv, V domains shown)
VH: QVQLVQSGAEVKKFGSSVKVSCKASGGMFSSYTISWVRQGPGQGLEWMGSFIPILERANYAQKFQGRVSFTADKSTSTAYMELGSLTSEDTAVYFCARDVGDFGDSWGQGTLVTVSS
VL: ELELTQPPSVSVFPGQTARITCSGDTLPKQYGNWYQQKPGQAPVVVIYKDTERPSGIPERFSGSSSGTTATLTISGVQAEDEADYYCQSADSNDWVLFGGGTKLTVL
B9: scFv 2-206 (scFv, V domains shown)
VH: B4 VH with E10D, D33T, S50R, I52V, G56D, S58A, R87T, Q100R, A103D, N105K
VL: ELVLTQPPSVSVAPGQTARITCGGNNIGSKNVHWYQQKPGQAPVLVVYDDSDRPSGIPERFSGSNSGNTATLTISRVEAGDEADYYCQVWDSSSDHWVFGGGTKVTVL
B10: scFv 2-304 (scFv, V domains shown)
VH: QVHLVQSGAEVKKPGSSVKVSCKASGGTFSSYAISWVRQAPGQGLEWMGGITPILGVTNYSQKFQGRVTVTADISTTTAYMELSSLTSEDTAVYYCARDQGYANDYGAYWGQGTLVTVSS
VL: B9 VL with G28E, D52G, V105L
B11: scFv 4-307 (scFv, V domains shown)
VH: QVQLVQSGAEVKKPGSSVKVSCKASGGTFSTYTINWMRQAPGQGLEWMGRIIPMFGTANYAQKFRGRVTITADESTSTAYMELSSLISEDTAIYYCARSGYSDAFDIWGQGTMVTVSS
VL: B9 VL with Q16T, N31S, V47I, D49Y, H96Q, W97G, K104Q, V105L
B12: scFv 2-102 (scFv, V domains shown)
VH: B4 VH with K23R, D33T, S50R, I51V, I52V, I57V, S58T, Q100K, A103D
VL: B9 VL with L4V, K30I, D52A, S93R, H96Y
B13: scFv z1-303 (scFv, V domains shown)
VH: QVQLQESGPGLVRPSQTLSLTCAISGDSVSNNNAAWNWIRQSPSRGLEWLGRTFYRSRWYNDYAVSVKSRIIINPDTSKNQFSLDLTSVTPEDTAVYFCAREGQWLPNYFDPWGQGTLVTVSS
VL: B9 VL with N31S, R76G, A79V, S94R, W97V, K104E, V105L
B14: scFv 2-302 (scFv, V domains shown)
VH: EVQLVQSGAEVKKPGSSVKVSCKASGGTFSSYTINWVRQAPGQGLEWMGRIIPILGIENYAQKFQGRVTISADKSTSTAYMELSSLRSDDTAVYYCARDQVFGAYWGPGTLVTVSS
VL: B9 VL with R19I, N25S, S29T, N31S, P39S, Y48H, S51A, D52H, D91E
B15: scFv 2-207 (scFv, V domains shown)
VH: B10 VH with H3Q
VL: B9 VL with N31S, Y48H, S75G, E78G, K104Q, V105L
B16: scFv 2-301 (scFv, V domains shown)
VH: B10 VH with H3Q
VL: B9 VL with T21I, N31T, T71A, D91H
B17: scFv 1-441 (scFv, V domains shown)
VH: QVQLQESGGGVVQPGRSLRLSCTDSGFTFSRYAMHWVRQAPGKGLEWVAGISYDGSYEYYADSVKGRFTISRDNSKNTLYVQMNSLRGEDTAVYYCARDLRGGEDYWGQGTLVTVSS
VL: ELVVTQPPSVSAAPGQKVTISCSGSTSNIGNNYVSWYQQFPGTAPKLLIYDNNKRPSGIPDRFSGSKSGTSATLGITGLQTGDEADYYCGTWDSSLSAVVFGGGTKVTVL
B18: scFv 4-303 (scFv, V domains shown)
VH: QVQLVQSGAEVKKPGSSVKVSCKASGGTFSNYGISWVRQAPGQGLEWMGKIIPILGITNYAQKFQGRVTITADKSTSTAYMELSSLRSEDTAVYYCARGGGSYDFFDYWGQGTLVTVSS
VL: ELELTQPPSVSVAPGKAARLSCGGEDIGIKSVHWYQQKTGRAPVLVIYNDDDRPSGIPERFAGSNSGNTATLTISRVEAGDEADYYCEVWDSLTDRVVFGGGTKLTVL
B19: scFv 1-450 (scFv, V domains shown)
VH: QVQLVQSGAEVKKPGSSMNVSCKASGGTFSRHTINWVRQAPGQGLEWMGSIIPILGITNYAQNFQGRLTFSADKSTNTAYVELSGLRSEDTAVYYCASGDYYYDMAVWGQGTTVAVTS
VL: ELVLTQPPSVSVSPGQTARITCSGDALPKQYAYWYQQKPGQAPVLVIYKDSERPSGIPERFSGSSSGTTATLTISGVQAEDEADYYCQSAYSSGTVVFGGGTELTVL

Key:
human ADAMTS13 = target: T1, human ADAMTS13 (human, UniProt Q76LX8 75-1427); test: phage ELISA on ADAMTS13-coated plates (positive: >10-fold absorbance above background)
T1 construct: ELISA: full-length recombinant ADAMTS13 coated on plates (Technoclone); Activity assays: endogenous ADAMTS13 of normal human plasma; also called full-length human recombinant ADAMTS13; VWF-cleaving protease
T1 sequence (looked up): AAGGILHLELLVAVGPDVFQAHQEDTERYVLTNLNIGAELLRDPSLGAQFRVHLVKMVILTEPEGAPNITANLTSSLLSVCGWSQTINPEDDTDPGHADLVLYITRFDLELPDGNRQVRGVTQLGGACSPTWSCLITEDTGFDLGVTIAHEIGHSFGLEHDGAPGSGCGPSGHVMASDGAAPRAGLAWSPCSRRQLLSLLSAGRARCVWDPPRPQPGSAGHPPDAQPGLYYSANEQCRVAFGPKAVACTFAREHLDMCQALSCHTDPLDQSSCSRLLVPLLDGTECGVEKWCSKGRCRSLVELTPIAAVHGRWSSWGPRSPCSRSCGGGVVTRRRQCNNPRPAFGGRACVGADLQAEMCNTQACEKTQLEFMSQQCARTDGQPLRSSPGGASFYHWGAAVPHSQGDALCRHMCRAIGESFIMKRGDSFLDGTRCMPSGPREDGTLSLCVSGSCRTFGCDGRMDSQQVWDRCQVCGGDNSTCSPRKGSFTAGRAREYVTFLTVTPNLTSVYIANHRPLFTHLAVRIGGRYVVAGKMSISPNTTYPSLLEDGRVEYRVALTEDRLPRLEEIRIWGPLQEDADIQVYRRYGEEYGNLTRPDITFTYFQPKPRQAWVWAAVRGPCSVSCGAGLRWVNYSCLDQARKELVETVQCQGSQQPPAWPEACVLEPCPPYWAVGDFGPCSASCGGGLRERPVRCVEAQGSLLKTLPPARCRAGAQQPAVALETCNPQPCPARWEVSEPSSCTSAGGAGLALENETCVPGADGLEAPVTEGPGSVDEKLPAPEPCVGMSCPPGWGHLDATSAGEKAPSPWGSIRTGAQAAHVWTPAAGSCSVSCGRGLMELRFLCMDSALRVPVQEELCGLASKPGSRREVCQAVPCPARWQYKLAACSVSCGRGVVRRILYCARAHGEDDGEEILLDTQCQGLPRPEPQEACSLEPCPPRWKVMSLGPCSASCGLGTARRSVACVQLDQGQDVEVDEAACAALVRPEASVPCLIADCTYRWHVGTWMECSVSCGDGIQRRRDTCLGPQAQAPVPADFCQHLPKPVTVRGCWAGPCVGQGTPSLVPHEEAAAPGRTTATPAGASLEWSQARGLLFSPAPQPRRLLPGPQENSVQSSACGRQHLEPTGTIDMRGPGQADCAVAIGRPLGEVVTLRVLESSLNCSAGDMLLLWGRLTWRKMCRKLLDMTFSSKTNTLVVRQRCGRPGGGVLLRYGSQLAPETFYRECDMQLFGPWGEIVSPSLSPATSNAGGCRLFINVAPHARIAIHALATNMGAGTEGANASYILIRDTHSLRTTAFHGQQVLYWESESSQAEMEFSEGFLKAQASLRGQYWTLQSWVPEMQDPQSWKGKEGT

[1] = target: T2, hemagglutinin ectodomain of influenza virus H1/PR/8/34 (influenza virus H1/PR/8/34, UniProt P03452 18-528); test: immunoassay or flow cytometry
T2 construct: extracellular domain; also called HA H1/PR/8/34
T2 sequence (P03452 18-528): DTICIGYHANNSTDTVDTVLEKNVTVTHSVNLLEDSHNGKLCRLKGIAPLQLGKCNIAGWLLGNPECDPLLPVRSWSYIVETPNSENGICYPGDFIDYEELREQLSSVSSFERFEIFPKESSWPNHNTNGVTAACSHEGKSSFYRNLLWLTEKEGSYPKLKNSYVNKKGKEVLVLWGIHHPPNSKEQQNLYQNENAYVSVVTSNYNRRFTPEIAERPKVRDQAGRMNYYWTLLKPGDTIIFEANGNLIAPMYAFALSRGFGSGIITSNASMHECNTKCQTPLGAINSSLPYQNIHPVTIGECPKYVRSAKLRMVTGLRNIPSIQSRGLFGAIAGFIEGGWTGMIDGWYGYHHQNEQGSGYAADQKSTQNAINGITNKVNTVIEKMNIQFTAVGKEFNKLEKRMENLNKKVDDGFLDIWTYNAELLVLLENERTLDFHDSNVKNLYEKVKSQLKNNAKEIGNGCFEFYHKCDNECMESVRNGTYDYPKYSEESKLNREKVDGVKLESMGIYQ

| Binder | binding result (human ADAMTS13) | binding result [1] |
| --- | --- | --- |
| B1 | binds | – |
| B2 | binds | – |
| B3 | binds | – |
| B4 | – | no binding |
| B5 | binds | – |
| B6 | binds | – |
| B7 | binds | – |
| B8 | binds | – |
| B9 | binds | – |
| B10 | binds | – |
| B11 | binds | – |
| B12 | – | no binding |
| B13 | binds | – |
| B14 | binds | – |
| B15 | binds | – |
| B16 | binds | – |
| B17 | binds | – |
| B18 | binds | – |
| B19 | binds | – |
